{"source": "patent US20130253037", "proteins": {"B1": {"name": "6-His-LIMK2 (recombinant, E. coli) (protein)", "chain": "MSALAGEDVWRCPGCGDHIAPSQIWYRTVNETWHGSCFRCSECQDSLTNWYYEKDGKLYCPKDYWGKFGEFCHGCSLLMTGPFMVAGEFKYHPECFACMSCKVIIEDGDAYALVQHATLYCGKCHNEVVLAPMFERLSTESVQEQLPYSVTLISMPATTEGRRGFSVSVESACSNYATTVQVKEVNRMHISPNNRNAIHPGDRILEINGTPVRTLRVEEVEDAISQTSQTLQLLIEHDPVSQRLDQLRLEARLAPHMQNAGHPHALSTLDTKENLEGTLRRRSLRRSNSISKSPGPSSPKEPLLFSRDISRSESLRCSSSYSQQIFRPCDLIHGEVLGKGFFGQAIKVTHKATGKVMVMKELIRCDEETQKTFLTEVKVMRSLDHPNVLKFIGVLYKDKKLNLLTEYIEGGTLKDFLRSMDPFPWQQKVRFAKGIASGMAYLHSMCIIHRDLNSHNCLIKLDKTVVVADFGLSRLIVEERKRAPMEKATTKKRTLRKNDRKKRYTVVGNPYWMAPEMLNGKSYDETVDIFSFGIVLCEIIGQVYADPDCLPRTLDFGLNVKLFWEKFVPTDCPPAFFPLAAICCRLEPESRPAFSKLEDSFEALSLYLGELGIPLPAELEELDHTVSMQYGLTRDSPP"}}, "key": {"[1]": {"molecular_target": "6-His-Aurora-A (recombinant, wild type, from Sf9 insect cells)"}}, "data": [{"protein": "B1", "values": [{"measurement": "in vitro kinase assay, cofilin phosphorylation with [32P] ATP", "setting": "6-His-cofilin", "value": "LIMK2 efficiently phosphorylated cofilin as expected (lane 3)"}, {"measurement": "in vitro kinase assay, Aurora A (without TPX2) as putative LIMK2 substrate", "setting": "[1]", "value": "when LIMK2 was incubated with Aurora A (without TPX2), Aurora A did not get phosphorylated"}]}]}
